Legend:
[1] = biological target: the molecule itself; test: negative-stain electron microscopy; SEC peak 1 (dodecamer fraction), 3% uranyl acetate; 15000 particles, 2D class averages; 3D map with no symmetry imposed, 25 Å; two hexamers in a single LMNG micelle
[2] = biological target: the molecule itself; test: native gel or EMSA; Native PAGE (Mini-PROTEAN TGX precast gel) of SEC peak 2 (13.4 mL)

B1: Full-length Aquifex aeolicus FtsH (enzyme, UniProt O67077 1-634, looked up)
chain: MNALKNFFIWAIIIGAAIVAFNLFEGKREFTTKVSLNEVVKLVEEGKVSYAEVRGNTAIIQTKDGQKLEVTLPPNTNLVDKMVEKGVRVEVANPEPPGGWLVNVFLSWLPILFFIGIWIFLLRQMSGGGNVNRAFNFGKSRAKVYIEEKPKVTFKDVAGIEEVKEEVKEIIEYLKDPVKFQKLGGRPPKGVLLYGEPGVGKTLLAKAIAGEAHVPFISVSGSDFVEMFVGVGAARVRDLFETAKKHAPCIIFIDEIDAVGRARGAIPVGGGHDEREQTLNQLLVEMDGFDTSDGIIVIAATNRPDILDPALLRPGRFDRQIFIPKPDVRGRYEILKVHARNKKLAKDVDLEFVARATPGFTGADLENLLNEAALLAARKGKEEITMEEIEEALDRITMGLERKGMTISPKEKEKIAIHEAGHALMGLVSDDDDKVHKISIIPRGMALGVTQQLPIEDKHIYDKKDLYNKILVLLGGRAAEEVFFGKDGITTGAENDLQRATDLAYRMVSMWGMSDKVGPIAIRRVANPFLGGMTTAVDTSPDLLREIDEEVKRIITEQYEKAKAIVEEYKEPLKAVVKKLLEKETITCEEFVEVFKLYGIELKDKCKKEELFDKDRKSEENKELKSEEVKEEVV
notes: The protomer is the molecule; The construct came from U. Baumann; also called AaFtsH; LMNG-AaFtsH; source: E. coli, overexpressed (pET22a); extracted from purified membranes with LMNG; purified (Ni-NTA/HisTrap, SEC Superose 6)
[1]
  stoichiometry N: 12
[2]
  stoichiometry N: 6
